This note sets out measurements from patent publication US20100092974A1, “METHODS FOR SCREENING FOR MODULATORS OF CCRL2” (The Board of Trustees of the Leland Stanford Junior …, priority 2008, published 2010).

pEC50: −log10 of the molar value.

One may read the pEC50 as the negative decadic logarithm of the EC50, by convention in mol/L.

The target in assay [1] is T1, mCCRL2 (Mus musculus, UniProt O35457).
T1 construct: The coding regions of mCCRL2, huCCRL2, mCRTH2, and huCCR10 were amplified from genomic DNA; expressed in transfected cells
T1 sequence (O35457 1-360): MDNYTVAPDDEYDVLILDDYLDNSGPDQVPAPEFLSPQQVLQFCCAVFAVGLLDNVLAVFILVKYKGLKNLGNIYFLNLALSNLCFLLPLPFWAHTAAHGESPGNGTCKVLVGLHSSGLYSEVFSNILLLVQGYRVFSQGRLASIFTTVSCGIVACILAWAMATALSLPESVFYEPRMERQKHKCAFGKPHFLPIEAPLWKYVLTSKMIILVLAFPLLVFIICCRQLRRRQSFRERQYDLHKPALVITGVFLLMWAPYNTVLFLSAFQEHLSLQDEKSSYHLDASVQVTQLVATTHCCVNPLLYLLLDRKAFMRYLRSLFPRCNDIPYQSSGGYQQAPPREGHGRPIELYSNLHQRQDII
Description: immunofluorescence-based chemerin-binding assay, mCCRL2-HA L1.2. The settings on record: read-out: EC50, untagged chemerin vs His8-tagged chemerin binding; 10 nM His8-tagged serum form chemerin, 30 min on ice, anti-His6 PE.

The target of a further assay is T2, mCMKLR1 (Mus musculus, UniProt P97468).
T2 construct: expressed in transfected cells; host or cells: L1.2 mouse pre-B lymphoma cells
T2 sequence (P97468 1-371): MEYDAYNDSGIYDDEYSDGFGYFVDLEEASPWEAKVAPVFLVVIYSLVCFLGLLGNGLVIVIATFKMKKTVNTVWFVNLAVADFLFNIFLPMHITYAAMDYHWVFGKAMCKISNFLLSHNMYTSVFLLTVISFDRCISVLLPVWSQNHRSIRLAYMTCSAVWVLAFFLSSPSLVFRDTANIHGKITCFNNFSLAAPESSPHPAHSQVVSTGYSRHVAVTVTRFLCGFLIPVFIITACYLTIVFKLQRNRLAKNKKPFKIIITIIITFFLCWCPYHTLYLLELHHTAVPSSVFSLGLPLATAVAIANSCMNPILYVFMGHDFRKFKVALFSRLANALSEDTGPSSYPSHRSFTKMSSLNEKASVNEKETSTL
The assay is described as follows: immunofluorescence-based chemerin-binding assay, mCMKLR1-HA L1.2. The settings on record: 10 nM His8-tagged chemerin, anti-His6 PE.

Assay [2] concerns the target T1, mCCRL2. Description: intracellular calcium mobilization, mCCRL2/L1.2 transfectants. The settings on record: Fluo-4; CXCL12 acts via endogenous CXCR4. Type of assay: cell-based. The protocol: Chemoattractant-stimulated Ca^2+-mobilization was performed following Alliance for Cell Signaling protocol ID PP00000210. Cells (3×10^6/mL) were loaded with 4 μM Fluo4-AM and 0.16% Pluronic acid F-127 (Molecular Probes) in modified Iscove's medium (Iscove's medium with 1% heat inactivated bovine calf serum and 2 mM L-glutamine, Invitrogen) for 30 minutes at 37° C. The samples were mixed every 10 minutes during loading, washed once, resuspended at up to 2×10^6/mL in the same buffer, and allowed to rest in the dark for 30 minutes at room temperature. Chemoattractant-stimulated change in Ca^2+-sensitive fluorescence of Fluo-4 was measured over real-time with a FACsScan flow cytometer and CellQuest software (BD Biosciences) at room temperature under constant stirring (500 rpm). Fluorescent data were acquired continuously up to 1024 seconds at 1-second intervals. The samples were analyzed for 45 seconds to establish basal state, removed from the nozzle to add the stimuli, and then returned to the nozzle. Mean channel fluorescence over time was analyzed with FlowJo (TreeStar, Ashland, Oreg., USA) software. […] 500 μl of these chemerin-loaded cells were added to mCMKLR1/L1.2 cells loaded with Fluo4-AM, and calcium mobilization was evaluated.
Background: Calcium flux is commonly read through the fluorescence of an indicator in the cells.

Assay [3] deals with mouse peritoneal mast cells. Description: in vitro transwell chemotaxis, peritoneal mast cells. It is filed as cell-based. The settings on record: SSChigh CD11b- c-kit+ cells. On the procedure:
For migration experiments using cell lines, 2.5×10^5 cells/100 μl chemotaxis media (RPMI+10% fetal calf serum) were added to the top wells of 5-um pore transwell inserts (Costar, Corning, N.Y., USA), and test samples in 600 μl media were added to the bottom wells. After incubating the transwell plates for 1.5 hours at 37° C., the bottom wells were harvested and flow cytometry was used to assess migration. For primary cell chemotaxis, 1×10^6 cells/100 μl were added to the top well, and, following a 2 hour incubation at 37° C., polystyrene beads (15.0 μm diameter, Polysciences, Warrington, Pa., USA) were added to each well to facilitate normalization of the cell count. The cells were then stained for c-kit, F4/80, and/or CD11b expression and analyzed by flow cytometry. A ratio was generated and percent input migration was calculated.

With “chemerin: protein ligand for signaling receptor CMKLR1; serum form human chemerin expressed in baculovirus-infected insect cells, His8-tag removed”, the pEC50 with mCCRL2 [1] was 7.35. The chemerin binding result with mCMKLR1 was “unable to detect”. For the same substance, in the assay with mCCRL2 [2], the intracellular calcium mobilization result was “failed to trigger”. Also, the transwell migration result in assay [3] is “failed to migrate”.
